The values that follow come from US20210070876A1 (LES LABORATOIRES SERVIER, published 2021).

The target in test [1] is T1, His-tagged human CD73 ECD (human, UniProt P21589 27-549).
T1 construct: runs as a homodimer of about 124-125 kDa in SEC-MALS; also called CD73-His; CD73-His ECD antigen
T1 sequence: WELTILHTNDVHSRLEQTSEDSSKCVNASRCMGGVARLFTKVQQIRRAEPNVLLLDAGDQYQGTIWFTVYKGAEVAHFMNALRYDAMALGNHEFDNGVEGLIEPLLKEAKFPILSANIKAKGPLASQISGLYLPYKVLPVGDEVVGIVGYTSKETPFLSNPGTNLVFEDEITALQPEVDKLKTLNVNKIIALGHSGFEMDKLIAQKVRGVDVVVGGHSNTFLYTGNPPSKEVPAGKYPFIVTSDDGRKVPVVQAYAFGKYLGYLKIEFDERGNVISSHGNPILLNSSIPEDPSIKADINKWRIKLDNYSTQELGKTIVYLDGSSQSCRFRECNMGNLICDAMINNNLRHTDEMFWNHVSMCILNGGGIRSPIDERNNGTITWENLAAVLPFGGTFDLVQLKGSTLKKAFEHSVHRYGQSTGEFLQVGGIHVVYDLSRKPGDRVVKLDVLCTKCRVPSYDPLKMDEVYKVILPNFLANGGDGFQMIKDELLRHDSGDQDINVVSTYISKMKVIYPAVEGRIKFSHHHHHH
Briefly: SEC-MALS, mAb:CD73 0.1:1. As for the experimental part:
(§1) Anti-CD73 antibodies and His-tagged CD73 were analyzed in different ratios as well as individually to analyze the size of complexes formed between CD73 homodimer and anti-CD73 antibodies. Samples were prepared by mixing […] of CD73-His with 900, 450, 90 or 0 μmol of antibody diluted into PBS, pH 7.4. Samples were incubated for 30 min at room temperature followed by separation using a UHPLC UltiMate 3000 (Thermo Scientific) and SEC X-Bridge column (Waters) at a flow rate of 1.2 mL/min. Sample running buffer was 0.01 M Citrate, 250 mM L-Arginine.HCl, pH 6.0. Following HPLC separation, all samples were analyzed using a MiniDAWN TREOS MALS detector (Wyatt) and Optilab T-rEX refractive index detector (Wyatt). Data plots were generated using Graph Pad Prism.
On the technique in general: SEC sorts molecules by how far they enter the pores of the column.

Test [2] has as its target T2, cynomolgus CD73 expressed on cells (cynomolgus monkey (Macaca fascicularis), UniProt A0A2K5V5U7 27-549).
T2 construct: whole, on cells; also called cynomolgus CD73 on CHO-S cells; CD73 on Cynom-K1 cells
T2 sequence: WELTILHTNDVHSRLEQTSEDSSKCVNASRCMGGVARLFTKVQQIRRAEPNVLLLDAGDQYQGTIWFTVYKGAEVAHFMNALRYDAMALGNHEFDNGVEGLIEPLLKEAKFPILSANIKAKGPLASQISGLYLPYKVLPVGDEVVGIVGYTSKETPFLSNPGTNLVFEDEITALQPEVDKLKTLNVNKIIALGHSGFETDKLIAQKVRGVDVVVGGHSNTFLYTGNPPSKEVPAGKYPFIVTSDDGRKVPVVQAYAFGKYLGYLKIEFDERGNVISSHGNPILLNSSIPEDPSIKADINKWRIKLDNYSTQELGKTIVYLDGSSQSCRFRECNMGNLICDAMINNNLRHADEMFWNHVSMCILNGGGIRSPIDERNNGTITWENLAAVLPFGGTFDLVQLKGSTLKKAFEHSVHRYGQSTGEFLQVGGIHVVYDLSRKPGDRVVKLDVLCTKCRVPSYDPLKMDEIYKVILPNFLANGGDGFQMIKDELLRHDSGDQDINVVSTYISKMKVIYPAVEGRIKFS
Briefly: flow cytometry on CHO-S cells transiently expressing cynomolgus CD73, AF647 anti-human IgG (H+L) secondary, GeoMean. As for the experimental part: The anti-CD73 antibodies were incubated with the hamster CHO-S cell line transiently expressing human or cynomolgus CD73 for 30 minutes at 4° C. The cells were washed twice and subsequently incubated for an additional 20 minutes with AF647-conjugated secondary anti-human IgG (H+L) antibody. After the washing step, antibody binding was detected using the high-throughput flow cytometer iQue Screener PLUS (Sartorius) measuring the GeoMean of AF647 signal in each well. Every concentration was assayed in triplicate and a 12-point titration curve was generated for each antibody.
(In general: A flow cytometer gives signals particle by particle.)

In test [3] the target is T3, His-tagged cynomolgus CD73 ECD (cynomolgus monkey (Macaca fascicularis)).
T3 chain: T2 sequence
Description: SPR, mAb captured, His-tagged CD73 ECD injected. As for the experimental part: Kinetic binding analysis of anti-CD73 mAbs and Fab fragments was performed by Surface Plasmon Resonance (SPR), using a Continuous Flow Microspotter (CFM, Wasatch Microfluidics, Salt Lake City, US) combined with an IBIS MX96 SPR instrument (IBIS Technologies, The Netherlands). CD73 cDNAs coding for the extracellular domains of human and cynomolgus CD73 were synthesized and each cloned into a vector containing a CMV promoter and either a C-terminal 6× histidine sequence (SEQ ID NO: 45) for His-tagged CD73 ECD, or a human IgG1 Fc sequence (AA P101-K330), resulting in fusion of IgG1 Fc C-terminally to the cloned CD73 ECD. The His-tagged and Fc-fusion constructs were transiently expressed using an ExpiCHO™ expression system and purified either by standard Ni-NTA chromatography or standard MabSelect™ SuRe™ procedures, respectively. Anti-CD73 Fab fragments were generated by digesting full-length IgG1 antibodies with GingisKHAN enzyme, using a kit provided by Genovis (Sweden). Affinities of Fab fragments were measured by capturing Fc-tagged antigens on a G-a-hu-IgG Fc SensEye® for 15 minutes using the CFM. After spotting, the SensEye® was positioned in the IBIS MX96 biosensor and immobilized antigens were fixed by SensEye FixIt kit. Kinetic analysis was performed by injecting monomeric Fab fragments at increasing concentrations from 0.8 nM to 300 nM. After each cycle of Fab fragment injection, the surface was regenerated by 10 mM glycine pH 3, 10% glycerol. Fab association was performed for 15 minutes and antigen dissociation was performed for 15 minutes. Affinities of full-length monoclonal antibodies (mAbs) were measured by capturing mAbs on a G-a-hu-IgG Fc SensEye® (Ssens BV, The Netherlands) for 15 minutes using a Continuous Flow Microspotter (CFM, Wasatch Microfluidics, Salt Lake City, US). After spotting, the SensEye was docked in the IBIS MX96 and spotted mAbs were fixed by SensEye FixIt kit (Ssens BV, The Netherlands). Kinetic analysis was performed by applying a kinetic titration series injecting increasing concentrations of His-tagged antigens from 0.16 nM to 10 nM as 2-fold dilutions. The surface was regenerated before the next cycle of cynomolgus antigen injections by 100 mM H₃PO₄, pH 3. MAb association was performed for 15 minutes and antigen dissociation was performed for 45 minutes.
In general terms: Surface plasmon resonance follows binding to a sensor surface in real time, without labels.

Test [4] concerns the target T1, His-tagged human CD73 ECD. Description: SEC-MALS, mAb:CD73 0.5:1. The method, then:
as §1

The target of test [5] is T1, His-tagged human CD73 ECD. Briefly: SEC-MALS, mAb:CD73 1:1. The method, then: as §1

B1: antibody 21127 (antibody, human IgG1, kappa, L234A L235A, V domains shown)
VH: EVQLVESGGGLVQPGRSLRLSCAASGFTFDDFAMHWVRQAPGKGLEWVSGISWNSGNIGYADSVKGRFTISRDNAKNSLYLQMNSLRAEDTALYYCAKDKSGSPYYYYGMDVWGQGTMVTVSS
VL: DIQMTQSPSSVSASVGDRVTITCRATQGISRRLAWYQQKPGKAPKLLIYAASSLQSGVPSRFSGSGSGTDFTLTISSLQPEDFATYYCQQANSFPLTFGGGTKVEIKR
notes: Fully human IgG1-LALA (L234A/L235A), kappa
In general, EC50 (read off the curve) refers to the midpoint of the concentration-response curve. The Kd is the free concentration of one partner at which half of the binding sites on the other are occupied at equilibrium, for simple one-to-one binding. As to B1, the “molecular mass of complex, Peak 2 (MW, kDa)” value in test [1] was 282 kDa; in test [4] it was 277 kDa; in test [5], 269 kDa. The “EC50 (read off the curve)” value in test [2] was about 4 ng/mL. This molecule also displayed a Kd in test [3] of 0.24 nM.
